Consider 3 molecules from patent US20170066831A1 (Janssen / Centocor, published 2017).

Experiment [1] concerns the target T1, human ST2L extracellular domain with C-terminal His6 tag (human, UniProt Q01638 19-328).
T1 construct: also called huST2L-ECD; ST2L-ECD
T1 sequence: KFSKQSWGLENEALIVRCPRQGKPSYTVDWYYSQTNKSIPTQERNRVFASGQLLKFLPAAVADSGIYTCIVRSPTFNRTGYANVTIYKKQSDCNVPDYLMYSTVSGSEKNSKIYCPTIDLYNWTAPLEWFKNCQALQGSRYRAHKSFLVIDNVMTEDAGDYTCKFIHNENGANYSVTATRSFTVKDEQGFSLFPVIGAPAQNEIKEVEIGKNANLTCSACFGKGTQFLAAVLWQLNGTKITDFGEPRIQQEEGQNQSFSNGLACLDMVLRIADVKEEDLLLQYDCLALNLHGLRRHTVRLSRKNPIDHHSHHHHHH
Description: Fab binding to ST2L, method not detailed; parent C2494 Fab, without the D101aA substitution.

For experiment [2], the target named is T1, human ST2L extracellular domain with …. Description: immunosorbent assay with ECL detection, human-mouse domain-swap constructs. The method, then: (§1) Antibody binding to ST2L domain I, II and III was determined using standard capture ELISA assay using electrochemiluminescent detection format (Meso-Scale Discovery (MSD) technology). 10 μg/mL of each antibody was coated onto each well of an MSD HighBind plate (5 μL/well) for 2 hr at room temperature. […] The plate was covered with aluminum foil and incubated for 1 hr at room temperature with gentle shaking. The plate was then washed 3 times with HEPES wash buffer. MSD read buffer (150 μl) was added to each well, and the plate was then read using an MSD Sector Imager 6000.

Experiment [3] has as its target T2, mouse ST2L extracellular domain (mouse, UniProt P14719 28-326).
T2 construct: also called mouse ST2L-ECD; muST2L-ECD
T2 sequence: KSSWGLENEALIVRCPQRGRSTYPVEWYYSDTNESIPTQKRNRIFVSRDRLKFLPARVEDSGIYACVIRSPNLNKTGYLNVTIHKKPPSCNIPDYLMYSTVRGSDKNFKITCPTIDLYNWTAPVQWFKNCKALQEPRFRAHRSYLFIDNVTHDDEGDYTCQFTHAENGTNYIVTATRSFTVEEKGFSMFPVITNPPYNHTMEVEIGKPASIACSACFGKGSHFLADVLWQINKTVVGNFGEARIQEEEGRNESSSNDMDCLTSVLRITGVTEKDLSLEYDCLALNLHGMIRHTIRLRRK
The experiment is described as above. The method, then: as §1

Experiment [4] concerns the target T1, human ST2L extracellular domain with …. Description: assayed for binding to human ST2L, method not detailed.

B1: C2494 Fab (Fab, V domains shown)
VH: EVQLQQSVAELVRPGASVKLSCTASAFNIKDDYMHWVKQRPEQGLEWIGRIDPAIGNTEYAPKFQDKATMTADTSSNTAYLQLSSLTSEDTAVYYCALGDFYAMDYWGQGTSVTVSS
VL: ETTVTQSPASLSVATGEKVTIRCITNTDIDDVIHWYQQKPGEPPKLLISEGNTLRPGVPSRFSSSGYGTDFVFTIENTLSEDVADYYCLQSDNMLTFGAGTKLELK
Take B1: the dissociation rate constant (koff) (commonly the rate constant with which the complex falls apart) in experiment [1] worked out at 0.000143 s⁻¹.

B2: CNTO3914 (antibody, mouse IgG1, V domains shown)
VH: EVQLVESGGGLLQPGRSLKLSCTASGFIFSHYGMAWVRQAPTKGLEWVSSIITDGTSTYYRDSVKGRFTISRDNAKNTQYLQMDSLRSEDTATYYCARQSDDYFDYWGQGVMVTVSS
VL: DVVLTQTPVSLSVTLGDQASISCKSSQSLEYSDGDSYLEWYLQKPGQSPQLLIYGVSNRFSGVPDRFIGSGSGTDFTLKISRVEPEDLGVYYCFQATHDPFTFGSGTKLEIK
notes: Rat hybridoma C1999 V regions cloned into mouse IgG1 background; also called C1999
Consider B2, for which the binding result in experiment [2] is on record as “no binding”; in experiment [3], “binds”.

B3: STLM189 (antibody, V domains shown)
VH: QVQLVQSGAEVKKPGASVKVSCKVSAFNIKDDYMHWVRQAPGKGLEWMGRIDPAIGNTEYAPKFQDRVTMTEDTSTDTAYMELSSLRSEDTAVYYCATGDFYAMDYWGQGTLVTVSS
VL: EIVMTQSPATLSVSPGERATLSCITNTDIDDVIHWYQQKPGQAPRLLIYEGNTLRPGIPARFSGSGSGTEFTLTISSLQSEDFAVYYCLQSDNMLTFGQGTKLEIK
notes: C2494 HFA mAb: VH STLH195 + VL STLL278 (L2)
Consider B3, for which, in experiment [4], the binding result is recorded as “binds”.
